This experiment deals with rFKBP22 (a recombinant E. coli FKBP22) (Escherichia coli) (UniProt P0A9L3). The experiment in a line: cross-linking; glutaraldehyde-mediated chemical cross-linking of rFKBP22 (bound/unbound with rapamycin) at 30°–85°C, analysed by SDS-13.5% PAGE.

“rFKBP22 (a recombinant E. coli FKBP22) (from UniProt P0A9L3 1-206) (enzyme)”: the stoichiometry N was found to be 2.

These data come from article PMC4114562.
